94 variants from the supplement of paper PMC10567573 can be followed below.

B1: NECAB1 (parent)
chain: FSPNSPQFNVSGPGLLEEDNQWMT
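Also: lentivirally expressed fusions sorted by FACS into six bins by GFP to DsRed ratio, PSI derived from sequencing read proportions per bin multiplied by bin number.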

This series covers variants of B1. The series can be described thus: protein stability index of a GFP-peptide fusion (GPS, HEK-293T) (PSI 1-6); higher = more stable. The following applies: c terminus: a fixed tail appended.
For FSPNSPQFNVSGEGLLEEDNQWMT [P13E], the protein stability index was found to be 3.58.
For FSPNSPQFNVSGMGLLEEDNQWMT [P13M], the protein stability index was determined as 2.65.
The figure for FSPNSPQFNVSGGGLLEEDNQWMT [P13G] is 2.89; for FSPNSPQFNVSGNGLLEEDNQWMT [P13N] it is 3.5.
Take FSPNSPQFNVSGVGLLEEDNQWMT [P13V]: the protein stability index is 2.75.
The figure for FSPNSPQFNVSGHGLLEEDNQWMT [P13H] is 2.62; for FSPNSPQFNVSGCGLLEEDNQWMT [P13C] it is 2.49.
The result for FSPNSPQFNVSGWGLLEEDNQWMT [P13W] reads 1.7; that for FSPNSPQFNVSGSGLLEEDNQWMT [P13S], 3.02; that for FSPNSPQFNVSGAGLLEEDNQWMT [P13A], 3.15.
Consider FSPNSPQFNVSGLGLLEEDNQWMT [P13L], for which the protein stability index was determined as 2.39.
The result for FSPNSPQFNVSGKGLLEEDNQWMT [P13K] reads 2.71; that for FSPNSPQFNVSGIGLLEEDNQWMT [P13I], 3.27.
The figure for FSPNSPQFNVSGQGLLEEDNQWMT [P13Q] is 3.12; for FSPNSPQFNVSGTGLLEEDNQWMT [P13T] it is 3.32.
The result for FSPNSPQFNVSGRGLLEEDNQWMT [P13R] reads 2.79.
For the variant FSPNSPQFNVSGFGLLEEDNQWMT [P13F], the protein stability index was determined as 2.29.
In the case of FSPNSPQFNVSGYGLLEEDNQWMT [P13Y], the protein stability index came to 2.75.
As to FSPNSPQFNVSGPGLGEEDNQWMT [L16G], the protein stability index came to 2.73.
On to FSPNSPQFNVSGPGLYEEDNQWMT [L16Y], for which the protein stability index was determined as 2.73.
The result for FSPNSPQFNVSGPGLIEEDNQWMT [L16I] reads 2.91; that for FSPNSPQFNVSGPGLQEEDNQWMT [L16Q], 3.54; that for FSPNSPQFNVSGPGLSEEDNQWMT [L16S], 3.23.
On to FSPNSPQFNVSGPGLNEEDNQWMT [L16N], for which the protein stability index worked out at 2.97.
The result for FSPNSPQFNVSGPGLEEEDNQWMT [L16E] reads 4; that for FSPNSPQFNVSGPGLKEEDNQWMT [L16K], 2.94; that for FSPNSPQFNVSGPGLCEEDNQWMT [L16C], 3.03.
The result for FSPNSPQFNVSGPGLAEEDNQWMT [L16A] reads 3.29.
With FSPNSPQFNVSGPGLWEEDNQWMT [L16W], the protein stability index is 2.25.
As for FSPNSPQFNVSGPGLPEEDNQWMT [L16P], the protein stability index is 3.52.
With FSPNSPQFNVSGPGLREEDNQWMT [L16R], the protein stability index amounted to 3.12.
The figure for FSPNSPQFNVSGPGLMEEDNQWMT [L16M] is 2.66.
Consider FSPNSPQFNVSGPGLTEEDNQWMT [L16T], for which the protein stability index is 3.53.
The result for FSPNSPQFNVSGPGLFEEDNQWMT [L16F] reads 2.42.
The figure for FSPNSPQFNVSGPGLDEEDNQWMT [L16D] is 3.94.
On to FSPNSPQFNVSGPGLVEEDNQWMT [L16V], for which the protein stability index came out at 3.18.
The figure for FSPNSPQFNVSGPGLHEEDNQWMT [L16H] is 3.98; for FSPNSPQFNVSGPGLLEADNQWMT [E18A] it is 2.82; for FSPNSPQFNVSGPGLLEGDNQWMT [E18G] it is 2.02.
The result for FSPNSPQFNVSGPGLLEVDNQWMT [E18V] reads 2.31.
On to FSPNSPQFNVSGPGLLEKDNQWMT [E18K], for which the protein stability index worked out at 3.2.
The figure for FSPNSPQFNVSGPGLLEQDNQWMT [E18Q] is 1.97; for FSPNSPQFNVSGPGLLETDNQWMT [E18T] it is 2.23; for FSPNSPQFNVSGPGLLERDNQWMT [E18R] it is 2.14.
The figure for FSPNSPQFNVSGPGLLEDDNQWMT [E18D] is 2.91.
For the variant FSPNSPQFNVSGPGLLEYDNQWMT [E18Y], the protein stability index stood at 1.82.
The figure for FSPNSPQFNVSGPGLLEPDNQWMT [E18P] is 1.84; for FSPNSPQFNVSGPGLLENDNQWMT [E18N] it is 2.83.
FSPNSPQFNVSGPGLLEWDNQWMT [E18W]: the protein stability index was determined as 2.14.
The result for FSPNSPQFNVSGPGLLESDNQWMT [E18S] reads 1.88.
The result for FSPNSPQFNVSGPGLLEHDNQWMT [E18H] reads 2.39.
The result for FSPNSPQFNVSGPGLLEIDNQWMT [E18I] reads 2.4.
On to FSPNSPQFNVSGPGLLEFDNQWMT [E18F], for which the protein stability index is 2.61.
The figure for FSPNSPQFNVSGPGLLELDNQWMT [E18L] is 2.03.
The figure for FSPNSPQFNVSGPGLLECDNQWMT [E18C] is 1.89; for FSPNSPQFNVSGPGLLEMDNQWMT [E18M] it is 2.65; for FSPNSPQFNVSGPGLLREDNQWMT [E17R] it is 2.86.
The figure for FSPNSPQFNVSGPGLLMEDNQWMT [E17M] is 2.54; for FSPNSPQFNVSGPGLLPEDNQWMT [E17P] it is 2.58.
Regarding FSPNSPQFNVSGPGLLDEDNQWMT [E17D], the protein stability index stood at 2.74.
With FSPNSPQFNVSGPGLLVEDNQWMT [E17V], the protein stability index was determined as 2.33.
Regarding FSPNSPQFNVSGPGLLSEDNQWMT [E17S], the protein stability index was determined as 2.98.
Turning to FSPNSPQFNVSGPGLLGEDNQWMT [E17G], the protein stability index came to 2.49.
As for FSPNSPQFNVSGPGLLAEDNQWMT [E17A], the protein stability index was 2.4.
For the variant FSPNSPQFNVSGPGLLTEDNQWMT [E17T], the protein stability index was determined as 2.36.
The result for FSPNSPQFNVSGPGLLFEDNQWMT [E17F] reads 1.69.
The figure for FSPNSPQFNVSGPGLLKEDNQWMT [E17K] is 1.97; for FSPNSPQFNVSGPGLLLEDNQWMT [E17L] it is 2.29; for FSPNSPQFNVSGPGLLWEDNQWMT [E17W] it is 2.82.
The figure for FSPNSPQFNVSGPGLLQEDNQWMT [E17Q] is 3.13.
Turning to FSPNSPQFNVSGPGLLHEDNQWMT [E17H], the protein stability index came out at 2.72.
FSPNSPQFNVSGPGLLCEDNQWMT [E17C]: the protein stability index is 2.04.
The result for FSPNSPQFNVSGPGLLYEDNQWMT [E17Y] reads 2.46; that for FSPNSPQFNVSGPGLLNEDNQWMT [E17N], 2.33; that for FSPNSPQFNVSGPGLLIEDNQWMT [E17I], 2.53.
For the variant FSPNSPQFNVSGPGKLEEDNQWMT [L15K], the protein stability index worked out at 2.97.
The result for FSPNSPQFNVSGPGMLEEDNQWMT [L15M] reads 3.22; that for FSPNSPQFNVSGPGRLEEDNQWMT [L15R], 2.51.
On to FSPNSPQFNVSGPGALEEDNQWMT [L15A], for which the protein stability index amounted to 3.26.
The result for FSPNSPQFNVSGPGHLEEDNQWMT [L15H] reads 3.19; that for FSPNSPQFNVSGPGNLEEDNQWMT [L15N], 3.27; that for FSPNSPQFNVSGPGQLEEDNQWMT [L15Q], 3.06.
The result for FSPNSPQFNVSGPGCLEEDNQWMT [L15C] reads 3.04; that for FSPNSPQFNVSGPGYLEEDNQWMT [L15Y], 3.05.
On to FSPNSPQFNVSGPGELEEDNQWMT [L15E], for which the protein stability index was 3.46.
The figure for FSPNSPQFNVSGPGDLEEDNQWMT [L15D] is 3.7; for FSPNSPQFNVSGPGPLEEDNQWMT [L15P] it is 2.98; for FSPNSPQFNVSGPGGLEEDNQWMT [L15G] it is 2.91.
For the variant FSPNSPQFNVSGPGFLEEDNQWMT [L15F], the protein stability index stood at 2.91.
The figure for FSPNSPQFNVSGPGILEEDNQWMT [L15I] is 2.98.
On to FSPNSPQFNVSGPGVLEEDNQWMT [L15V], for which the protein stability index amounted to 3.23.
Turning to FSPNSPQFNVSGPGWLEEDNQWMT [L15W], the protein stability index worked out at 2.68.
Regarding FSPNSPQFNVSGPGSLEEDNQWMT [L15S], the protein stability index worked out at 3.3.
The result for FSPNSPQFNVSGPGTLEEDNQWMT [L15T] reads 3.25.
